To fix the notation:
B1: Catenin delta-1 (Mus musculus), P30999 (parent)
chain: MDDSEVESTASILASVKEQEAQFEKLTRALEEERRHVSAQLERVRVSPQDANSLMANGTLTRRHQNGRFVGDADLERQKFSDLKLNGPQDHNHLLYSTIPRMQEPGQIVETYTEEDPEGAMSVVSVETTDDGTTRRTETTVKKVVKTMTTRTVQPVPMGPDGLPVDASAVSNNYIQTLGRDFRKNGNGGPGPYVGQAGTATLPRNFHYPPDGYGRHYEDGYPGGSDNYGSLSRVTRIEERYRPSMEGYRAPSRQDVYGPQPQVRVGGSSVDLHRFHPEPYGLEDDQRSMGYDDLDYGMMSDYGTARRTGTPSDPRRRLRSYEDMIGEEVPPDQYYWAPLAQHERGSLASLDSLRKGMPPPSNWRQPELPEVIAMLGFRLDAVKSNAAAYLQHLCYRNDKVKTDVRKLKGIPILVGLLDHPKKEVHLGACGALKNISFGRDQDNKIAIKNCDGVPALVRLLRKARDMDLTEVITGTLWNLSSHDSIKMEIVDHALHALTDEVIIPHSGWEREPNEDCKPRHIEWESVLTNTAGCLRNVSSERSEARRKLRECDGLVDALIFIVQAEIGQKDSDSKLVENCVCLLRNLSYQVHREIPQAERYQEALPTVANSTGPHAASCFGAKKGKDEWFSRGKKPTEDPANDTVDFPKRTSPARGYELLFQPEVVRIYISLLKESKTPAILEASAGAIQNLCAGRWTYGRYIRSALRQEKALSAIAELLTSEHERVVKAASGALRNLAVDARNKELIGKHAIPNLVKNLPGGQQNSSWNFSEDTVVSILNTINEVIAENLEAAKKLRETQGIEKLVLINKSGNRSEKEVRAAALVLQTIWGYKELRKPLEKEGWKKSDFQVNLNNASRSQSSHSYDDSTLPLIDRNQKSDKKPDREEIPMSNMGSNTKSLDNNYSTLNERGDHNRTLDRSGDLGDMEPLKGAPLMQKI

Variants of B1 are the subject of the assay. The settings on record: with cadh2_mouse Cdh2, P15116.
Sequence of cadh2_mouse Cdh2, P15116 (P15116 whole entry): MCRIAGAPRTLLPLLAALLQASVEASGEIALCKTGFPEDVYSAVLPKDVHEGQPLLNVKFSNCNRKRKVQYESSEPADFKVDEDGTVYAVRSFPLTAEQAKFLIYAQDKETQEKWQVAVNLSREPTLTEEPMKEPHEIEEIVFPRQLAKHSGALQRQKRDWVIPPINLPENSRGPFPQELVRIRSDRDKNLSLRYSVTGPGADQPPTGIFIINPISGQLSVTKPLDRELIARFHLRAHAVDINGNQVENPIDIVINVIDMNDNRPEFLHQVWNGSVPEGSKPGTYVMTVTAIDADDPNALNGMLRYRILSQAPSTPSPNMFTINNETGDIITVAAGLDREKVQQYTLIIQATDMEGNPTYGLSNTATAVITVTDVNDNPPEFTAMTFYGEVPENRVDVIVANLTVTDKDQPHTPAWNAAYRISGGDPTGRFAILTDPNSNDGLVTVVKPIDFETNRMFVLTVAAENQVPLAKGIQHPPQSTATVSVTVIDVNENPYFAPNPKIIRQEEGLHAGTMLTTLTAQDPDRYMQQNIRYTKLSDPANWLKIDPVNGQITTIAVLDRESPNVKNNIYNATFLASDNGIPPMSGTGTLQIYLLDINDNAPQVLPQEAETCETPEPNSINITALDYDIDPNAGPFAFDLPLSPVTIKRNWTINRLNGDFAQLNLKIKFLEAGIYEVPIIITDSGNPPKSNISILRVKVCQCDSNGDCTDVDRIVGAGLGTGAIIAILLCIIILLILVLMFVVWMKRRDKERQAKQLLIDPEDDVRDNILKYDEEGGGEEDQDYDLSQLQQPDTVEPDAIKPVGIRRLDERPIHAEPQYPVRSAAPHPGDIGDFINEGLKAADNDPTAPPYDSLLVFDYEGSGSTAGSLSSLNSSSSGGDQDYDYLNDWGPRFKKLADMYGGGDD
T310A: the “effect of a mutation on the interaction” value is reported as “increasing interaction strength”.

The values are drawn from IntAct's records for PubMed 24929360.
